{
  "source": "paper PMC8687316",
  "origin": "cited, not measured here",
  "biological_target": "p53 (Homo sapiens) (UniProt P04637)",
  "sequence (P04637 whole entry)": "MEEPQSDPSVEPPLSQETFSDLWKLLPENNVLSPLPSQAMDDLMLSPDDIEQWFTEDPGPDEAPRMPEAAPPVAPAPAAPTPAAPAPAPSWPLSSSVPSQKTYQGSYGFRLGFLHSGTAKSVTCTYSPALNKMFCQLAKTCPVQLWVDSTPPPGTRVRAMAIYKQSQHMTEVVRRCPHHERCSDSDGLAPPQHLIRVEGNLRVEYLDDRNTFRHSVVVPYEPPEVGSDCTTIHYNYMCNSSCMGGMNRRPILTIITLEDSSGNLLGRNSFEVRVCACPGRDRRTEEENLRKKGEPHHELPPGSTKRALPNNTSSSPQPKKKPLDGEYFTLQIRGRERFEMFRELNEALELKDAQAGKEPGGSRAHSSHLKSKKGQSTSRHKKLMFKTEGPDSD",
  "data": [
    {"substance": "Mdm2 (from UniProt Q00987)", "values": [
      {"measurement": "Kd", "value": 1.44, "unit": "nM"}
    ]}
  ]
}
